In the experiment the target is T1, complement factor C1q (UniProt P02745 23-245; P02746 28-253; P02747 29-245).
T1 construct: also called Clq; recombinant complement factor C1q
Description: flow cytometry: BT-474 cells with 10 µg/mL antibody, then 10 µg/mL C1q, detected with PE-labeled anti-C1q antibody. How it is done:
About 3×10⁵ BT-474 cells were incubated with 10 μg/mL of indicated antibody on ice in RPMI 1640 supplemented with 10% FCS. After 30 min. incubation on ice 10 μg/mL C1q (Sigma Aldrich, Cat. No. C1740) was added. The incubation was continued thereafter for an additionally 20 min. on ice. After washing the cells were resuspended in 200 μL medium and counterstained with a PE-labeled anti-C1q antibody (Cedarlane, Cat. No. CL7611PE-SP). After an incubation time of 30 min. on ice cells were washed twice and analyzed on a FACS Canto

T1 sequence (P02745 23-245 limits assumed, chain 1 of 3): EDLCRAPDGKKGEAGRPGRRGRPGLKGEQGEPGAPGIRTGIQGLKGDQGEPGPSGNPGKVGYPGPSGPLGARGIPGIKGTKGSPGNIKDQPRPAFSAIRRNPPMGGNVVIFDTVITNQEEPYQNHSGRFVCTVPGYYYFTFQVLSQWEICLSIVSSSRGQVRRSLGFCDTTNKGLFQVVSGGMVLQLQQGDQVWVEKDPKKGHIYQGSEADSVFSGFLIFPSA
T1 sequence (P02746 28-253 limits assumed, chain 2 of 3): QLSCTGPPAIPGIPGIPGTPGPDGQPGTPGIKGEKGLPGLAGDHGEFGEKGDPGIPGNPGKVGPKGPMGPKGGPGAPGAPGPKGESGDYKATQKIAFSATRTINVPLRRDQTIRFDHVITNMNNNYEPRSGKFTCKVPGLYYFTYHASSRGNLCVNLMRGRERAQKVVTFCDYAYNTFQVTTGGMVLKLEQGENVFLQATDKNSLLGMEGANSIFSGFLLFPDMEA
T1 sequence (P02747 29-245 limits assumed, chain 3 of 3): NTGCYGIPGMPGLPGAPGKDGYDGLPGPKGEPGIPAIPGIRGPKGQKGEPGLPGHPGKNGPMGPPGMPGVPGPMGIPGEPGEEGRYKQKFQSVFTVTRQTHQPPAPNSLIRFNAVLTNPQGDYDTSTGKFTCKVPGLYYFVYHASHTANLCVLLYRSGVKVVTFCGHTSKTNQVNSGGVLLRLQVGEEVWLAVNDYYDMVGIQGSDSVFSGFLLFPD

B1: bispecific anti-HER2 antibody, CrossMab format (bispecific antibody, human IgG1, kappa)
heavy 1: not shown
heavy 2: not shown
light 1: DIQLTQPPSVSVAPGQTARITCGASQDVSTAVAWYQQKPGQAPVLVVYSASFLYSGIPSRFSGSRSGTDFTLTISRVEAGDEADYYCQQHYTTPPTFGTGTKVTVLRTVAAPSVFIFPPSDEQLKSGTASVVCLLNNFYPREAKVQWKVDNALQSGNSQESVTEQDSKDSTYSLSSTLTLSKADYEKHKVYACEVTHQGLSSPVTKSFNRGEC
light 2: DIQMTQSPSSLSASVGDRVTITCKASQDVSIGVAWYQQKPGKAPKLLIYSASYRYTGVPSRFSGSGSGTDFTLTISSLQPEDFATYYCQQYYIYPYTFGQGTKVEIKSSASTKGPSVFPLAPSSKSTSGGTAALGCLVKDYFPEPVTVSWNSGALTSGVHTFPAVLQSSGLYSLSSVVTVPSSSLGTQTYICNVNHKPSNTKVDKKVEPKSC
notes: CrossMab format with four different chains
On to B1, for which the “PE-signal (geomean)” value was found to be 489 geomean PE-signal.

B2: bispecific anti-HER2 antibody, common light chain (bispecific antibody, human IgG1, kappa)
light: DIQMTQSPSSLSASVGDRVTITCKASQDVSTAVAWYQQKPGKAPKLLIYSASFRYTGVPSRFSGSRSGTDFTLTISSLQPEDFATYYCQQHYTTPPTFGQGTKVEIKRTVAAPSVFIFPPSDEQLKSGTASVVCLLNNFYPREAKVQWKVDNALQSGNSQESVTEQDSKDSTYSLSSTLTLSKADYEKHKVYACEVTHQGLSSPVTKSFNRGEC
heavy 1: not shown
heavy 2: not shown
notes: Knob-into-hole bispecific antibody with a common light chain
As for B2, the “PE-signal (geomean)” value is 1440 geomean PE-signal.

B3: bispecific anti-HER2 antibody, common light chain, glycoengineered (bispecific antibody, human IgG1, kappa)
light: B2 light
heavy 1: not shown
heavy 2: not shown
notes: The glycan change is not described
As to B3, the “PE-signal (geomean)” value turned out to be 1040 geomean PE-signal.

Values taken from US20180017572A1 (Hoffmann-La Roche, published 2018).
